We go through two substances from article PMC4310740.

The term Kd denotes the free concentration of one partner at which half of the binding sites on the other are occupied at equilibrium, for simple one-to-one binding. A low value points to a tighter complex.

For experiment [1], the target named is Alexa 594-labeled N-WASP VCA (S430C) (UniProt O00401). Nature of the experiment: fluorescence polarisation. On the technique in general: Polarisation of emitted light reports the rotation of a fluorescent probe.
Chain of Alexa 594-labeled N-WASP VCA (S430C) (O00401 whole entry S430C): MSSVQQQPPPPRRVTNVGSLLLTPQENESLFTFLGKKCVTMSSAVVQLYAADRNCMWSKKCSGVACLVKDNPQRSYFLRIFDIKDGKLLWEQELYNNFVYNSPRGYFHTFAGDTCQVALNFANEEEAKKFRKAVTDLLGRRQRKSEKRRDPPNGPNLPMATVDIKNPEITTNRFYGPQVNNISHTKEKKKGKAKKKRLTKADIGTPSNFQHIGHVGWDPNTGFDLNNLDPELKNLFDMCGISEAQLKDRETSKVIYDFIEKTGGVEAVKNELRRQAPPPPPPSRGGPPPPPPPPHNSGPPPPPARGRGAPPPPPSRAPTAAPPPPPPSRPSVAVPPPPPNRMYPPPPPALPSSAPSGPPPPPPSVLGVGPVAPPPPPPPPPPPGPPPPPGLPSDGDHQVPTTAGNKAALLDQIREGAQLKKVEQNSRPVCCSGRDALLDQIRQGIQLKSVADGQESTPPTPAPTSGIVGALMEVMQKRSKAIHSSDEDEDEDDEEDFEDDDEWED
The target in experiment [2] is G-actin (rabbit muscle actin monomers) (rabbit) (UniProt P68135). Nature of the experiment: fluorescence polarisation.

Substance “G-actin (rabbit muscle actin monomers) (from UniProt P68135 1-377) (natural protein)” yielded a Kd in experiment [1] of 106 nM.
Consider “human WAVE1 GST-VCA K507Q (from UniProt Q92558 1-559) (domain or fragment)”, for which, in experiment [2], the fold reduction of affinity against wild-type WAVE1 GST-VCA was less than 2 fold.
